# According to PMC6175958, “Formation of the β-barrel assembly machinery complex in lipid bilayers as seen by solid-state NMR” (Nature Communications, 2018):
# B1: BamAP4P5 (D264–W810) (domain or fragment)
# chain: not shown
# notes: BamA of E. coli, POTRA domains P4 and P5 plus the transmembrane β-barrel, residues D264–W810 (547 residues); Isotope labelled (AVLTI 13C/15N, or 13C-Ile, 13C-Phe and 15N-Gly) for the ssNMR samples; also called BamP4P5
# Biological target: T1, BamCDE complex (E. coli, UniProt P0A903 25-344; P0AC02 20-245; P0A937 20-113)
# T1 construct: BamC, lipoprotein of the E. coli BAM complex; BamD, lipoprotein of the E. coli BAM complex; BamE, lipoprotein of the E. coli BAM complex; Unlabelled; also called BamCDE sub-complex; BamCDE subcomplex; copies: + +
# Experiment: SEC; equimolar combination of the detergent solubilized proteins, mild rotation 1 h at 4 °C, then gel filtration on HiLoad 26/600 Superdex 200 pg
# Conditions: both partners purified
binder,measurement,value
B1,binding result,binds
